# Measured values taken from the supplement of paper PMC5998384.
# How the values were obtained:
# [1] = system: HeLa Kyoto; experiment: solubility change mitosis vs G1/S (difference of NP-40 vs SDS log2 ratios) (log2 ratio difference); higher = more soluble in mitosis
# [2] = system: HeLa Kyoto; experiment: melting temperature (median over replicates), in situ; higher = more thermally stable
# [3] = system: HeLa Kyoto; experiment: solubility in G1/S (NP-40 vs SDS abundance) (log2 ratio); higher = more soluble; details: cell cycle stage: G1/S
# [4] = system: HeLa Kyoto; experiment: thermal stability score vs G1/S (z-score of summed log2 fold changes over temperatures); higher = more thermally stable than in G1/S
# [5] = cell cycle stage: early G1 (4.5 h after nocodazole release)
# 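For melting temperature (median over replicates), in situ in this document: HeLa Kyoto cells synchronized by double thymidine or nocodazole block, proteins quantified by TMT10plex mass spectrometry, three independent biological replicates.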
# 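For solubility change mitosis vs G1/S (difference of NP-40 vs SDS log2 ratios) in this document: synchronized HeLa Kyoto cells (double thymidine block for G1/S, nocodazole release for mitosis), protein amounts in NP-40 versus SDS lysates quantified by mass spectrometry, three biological replicates.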
# 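For solubility in G1/S (NP-40 vs SDS abundance) in this document: HeLa Kyoto cells arrested at G1/S by double thymidine block, proteins quantified by TMT10plex mass spectrometry in mild NP-40 versus SDS extracts, three biological replicates.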
# 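For thermal stability score vs G1/S (z-score of summed log2 fold changes over temperatures) in this document: synchronized HeLa Kyoto cells, proteins quantified by TMT10plex mass spectrometry, three biological replicates, mitosis taken 0.5 h after nocodazole release, G1/S directly after double thymidine block.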
Sequence,solubility change mitosis (log2) [1],melting temperature ([2]; cell cycle stage: G1/S) [°C],melting temperature ([2]; cell cycle stage: mitosis) [°C],solubility in G1/S (log2) [3],"thermal stability score [4, 5]",thermal stability score ([4]; cell cycle stage: mitosis)
MDVGELLSYQPNRGTKRPRDDEEEEQKMRRKQTGTRERGRYREEEMTVVEEADDDKKRLLQIIDRDGEEEEEEEEPLDESSVKKMILTFEKRSYKNQELRIKFPDNPEKFMESELDLNDIIQEMHVVATMPDLYHLLVELNAVQSLLGLLGHDNTDVSIAVVDLLQELTDIDTLHESEEGAEVLIDALVDGQVVALLVQNLERLDESVKEEADGVHNTLAIVENMAEFRPEMCTEGAQQGLLQWLLKRLKAKMPFDANKLYCSEVLAILLQDNDENRELLGELDGIDVLLQQLSVFKRHNPSTAEEQEMMENLFDSLCSCLMLSSNRERFLKGEGLQLMNLMLREKKISRSSALKVLDHAMIGPEGTDNCHKFVDILGLRTIFPLFMKSPRKIKKVGTTEKEHEEHVCSILASLLRNLRGQQRTRLLNKFTENDSEKVDRLMELHFKYLGAMQVADKKIEGEKHDMVRRGEIIDNDTEEEFYLRRLDAGLFVLQHICYIMAEICNANVPQIRQRVHQILNMRGSSIKIVRHIIKEYAENIGDGRSPEFRENEQKRILGLLENF [CTNNBL1],0.207,47.6,47.7,-0.0781,3.96,7.66
MDWLMGKSKAKPNGKKPAAEERKAYLEPEHTKARITDFQFKELVVLPREIDLNEWLASNTTTFFHHINLQYSTISEFCTGETCQTMAVCNTQYYWYDERGKKVKCTAPQYVDFVMSSVQKLVTDEDVFPTKYGREFPSSFESLVRKICRHLFHVLAHIYWAHFKETLALELHGHLNTLYVHFILFAREFNLLDPKETAIMDDLTEVLCSGAGGVHSGGSGDGAGSGGPGAQNHVKER [MOB2],0.0638,50.1,,-0.0333,0.797,0.832
MDYRRLLMSRVVPGQFDDADSSDSENRDLKTVKEKDDILFEDLQDNVNENGEGEIEDEEEEGYDDDDDDWDWDEGVGKLAKGYVWNGGSNPQANRQTSDSSSAKMSTPADKVLRKFENKINLDKLNVTDSVINKVTEKSRQKEADMYRIKDKADRATVEQVLDPRTRMILFKMLTRGIITEINGCISTGKEANVYHASTANGESRAIKIYKTSILVFKDRDKYVSGEFRFRHGYCKGNPRKMVKTWAEKEMRNLIRLNTAEIPCPEPIMLRSHVLVMSFIGKDDMPAPLLKNVQLSESKARELYLQVIQYMRRMYQDARLVHADLSEFNMLYHGGGVYIIDVSQSVEHDHPHALEFLRKDCANVNDFFMRHSVAVMTVRELFEFVTDPSITHENMDAYLSKAMEIASQRTKEERSSQDHVDEEVFKRAYIPRTLNEVKNYERDMDIIMKLKEEDMAMNAQQDNILYQTVTGLKKDLSGVQKVPALLENQVEERTCSDSEDIGSSECSDTDSEEQGDHARPKKHTTDPDIDKKERKKMVKEAQREKRKNKIPKHVKKRKEKTAKTKKGK [RIOK1],0.0777,52.3,54.8,-0.18,1.87,1.28
MEADIITNLRCRLKEAEEERLKAAQYGLQLVESQNELQNQLDKCRNEMMTMTESYEQEKYTLQREVELKSRMLESLSCECEAIKQQQKMHLEKLEEQLSRSHGQEVNELKTKIEKLKVELDEARLSEKQLKHQVDHQKELLSCKSEELRVMSERVQESMSSEMLALQIELTEMESMKTTLKEEVNELQYRQEQLELLITNLMRQVDRLKEEKEEREKEAVSYYNALEKARVANQDLQVQLDQALQQALDPNSKGNSLFAEVEDRRAAMERQLISMKVKYQSLKKQNVFNREQMQRMKLQIATLLQMKGSQTEFEQQERLLAMLEQKNGEIKHLLGEIRNLEKFKNLYDSMESKPSVDSGTLEDNTYYTDLLQMKLDNLNKEIESTKGELSIQRMKALFESQRALDIERKLFANERCLQLSESENMKLRAKLDELKLKYEPEETVEVPVLKKRREVLPVDITTAKDACVNNSALGGEVYRLPPQKEETQSCPNSLEDNNLQLEKSVSIYTPVVSLSPHKNLPVDMQLKKEKKCVKLIGVPADAEALSERSGNTPNSPRLAAESKLQTEVKEGKETSSKLEKETCKKLHPILYVSSKSTPETQCPQQ [SPDL1],0.278,47.2,50.1,0.268,0.59,0.359
MEAEGSSAPARAGSGEGSDSAGGATLKAPKHLWRHEQHHQYPLRQPQFRLLHPHHHLPPPPPPSPQPQPQCPLQPPPPPPLPPPPPPPGAARGRYASSGATGRVRHRGYSDTERYLYCRAMDRTSYAVETGHRPGLKKSRMSWPSSFQGLRRFDVDNGTSAGRSPLDPMTSPGSGLILQANFVHSQRRESFLYRSDSDYDLSPKSMSRNSSIASDIHGDDLIVTPFAQVLASLRTVRNNFAALTNLQDRAPSKRSPMCNQPSINKATITEEAYQKLASETLEELDWCLDQLETLQTRHSVSEMASNKFKRMLNRELTHLSEMSRSGNQVSEFISNTFLDKQHEVEIPSPTQKEKEKKKRPMSQISGVKKLMHSSSLTNSSIPRFGVKTEQEDVLAKELEDVNKWGLHVFRIAELSGNRPLTVIMHTIFQERDLLKTFKIPVDTLITYLMTLEDHYHADVAYHNNIHAADVVQSTHVLLSTPALEAVFTDLEILAAIFASAIHDVDHPGVSNQFLINTNSELALMYNDSSVLENHHLAVGFKLLQEENCDIFQNLTKKQRQSLRKMVIDIVLATDMSKHMNLLADLKTMVETKKVTSSGVLLLDNYSDRIQVLQNMVHCADLSNPTKPLQLYRQWTDRIMEEFFRQGDRERERGMEISPMCDKHNASVEKSQVGFIDYIVHPLWETWADLVHPDAQDILDTLEDNREWYQSTIPQSPSPAPDDPEEGRQGQTEKFQFELTLEEDGESDTEKDSGSQVEEDTSCSDSKTLCTQDSESTEIPLDEQVEEEAVGEEEESQPEACVIDDRSPDT [PDE4D],-0.23,53.2,51.1,0.0456,-2.8,-4.75
MEANGLGPQGFPELKNDTFLRAAWGEETDYTPVWCMRQAGRYLPEFRETRAAQDFFSTCRSPEACCELTLQPLRRFPLDAAIIFSDILVVPQALGMEVTMVPGKGPSFPEPLREEQDLERLRDPEVVASELGYVFQAITLTRQRLAGRVPLIGFAGAPWTLMTYMVEGGGSSTMAQAKRWLYQRPQASHQLLRILTDALVPYLVGQVVAGAQALQLFESHAGHLGPQLFNKFALPYIRDVAKQVKARLREAGLAPVPMIIFAKDGHFALEELAQAGYEVVGLDWTVAPKKARECVGKTVTLQGNLDPCALYASEEEIGQLVKQMLDDFGPHRYIANLGHGLYPDMDPEHVGAFVDAVHKHSRLLRQN [UROD],-0.193,56.5,56.7,0.254,-0.168,-0.608
MEAPAAGLFLLLLLGTWAPAPGSASSEAPPLINEDVKRTVDLSSHLAKVTAEVVLAHLGGGSTSRATSFLLALEPELEARLAHLGVQVKGEDEEENNLEVRETKIKGKSGRFFTVKLPVALDPGAKISVIVETVYTHVLHPYPTQITQSEKQFVVFEGNHYFYSPYPTKTQTMRVKLASRNVESYTKLGNPTRSEDLLDYGPFRDVPAYSQDTFKVHYENNSPFLTITSMTRVIEVSHWGNIAVEENVDLKHTGAVLKGPFSRYDYQRQPDSGISSIRSFKTILPAAAQDVYYRDEIGNVSTSHLLILDDSVEMEIRPRFPLFGGWKTHYIVGYNLPSYEYLYNLGDQYALKMRFVDHVFDEQVIDSLTVKIILPEGAKNIEIDSPYEISRAPDELHYTYLDTFGRPVIVAYKKNLVEQHIQDIVVHYTFNKVLMLQEPLLVVAAFYILFFTVIIYVRLDFSITKDPAAEARMKVACITEQVLTLVNKRIGLYRHFDETVNRYKQSRDISTLNSGKKSLETEHKALTSEIALLQSRLKTEGSDLCDRVSEMQKLDAQVKELVLKSAVEAERLVAGKLKKDTYIENEKLISGKRQELVTKIDHILDAL [RPN1],-0.0592,53.2,53.6,0.0559,1.85,2.85
MEAPLQTGMMGTSSHGLATNSSGAKVAERDGFQDVLAPGEGSAGRICGAQPVPFVPQVLGVMIGAGVAVVVTAVLILLVVRRLRVPKTPAPDGPRYRFRKRDKVLFYGRKIMRKVSQSTSSLVDTSVSATSRPRMRKKLKMLNIAKKILRIQKETPTLQRKEPPPAVLEADLTEGDLANSHLPSEVLYMLKNVRVLGHFEKPLFLELCRHMVFQRLGQGDYVFRPGQPDASIYVVQDGLLELCLPGPDGKECVVKEVVPGDSVNSLLSILDVITGHQHPQRTVSARAARDSTVLRLPVEAFSAVFTKYPESLVRVVQIIMVRLQRVTFLALHNYLGLTNELFSHEIQPLRLFPSPGLPTRTSPVRGSKRMVSTSATDEPRETPGRPPDPTGAPLPGPTGDPVKPTSLETPSAPLLSRCVSMPGDISGLQGGPRSDFDMAYERGRISVSLQEEASGGSLAAPARTPTQEPREQPAGACEYSYCEDESATGGCPFGPYQGRQTSSIFEAAKQELAKLMRIEDPSLLNSRVLLHHAKAGTIIARQGDQDVSLHFVLWGCLHVYQRMIDKAEDVCLFVAQPGELVGQLAVLTGEPLIFTLRAQRDCTFLRISKSDFYEIMRAQPSVVLSAAHTVAARMSPFVRQMDFAIDWTAVEAGRALYRQGDRSDCTYIVLNGRLRSVIQRGSGKKELVGEYGRGDLIGVVEALTRQPRATTVHAVRDTELAKLPEGTLGHIKRRYPQVVTRLIHLLSQKILGNLQQLQGPFPAGSGLGVPPHSELTNPASNLATVAILPVCAEVPMVAFTLELQHALQAIGPTLLLNSDIIRARLGASALDSIQEFRLSGWLAQQEDAHRIVLYQTDASLTPWTVRCLRQADCILIVGLGDQEPTLGQLEQMLENTAVRALKQLVLLHREEGAGPTRTVEWLNMRSWCSGHLHLRCPRRLFSRRSPAKLHELYEKVFSRRADRHSDFSRLARVLTGNTIALVLGGGGARGCSHIGVLKALEEAGVPVDLVGGTSIGSFIGALYAEERSASRTKQRAREWAKSMTSVLEPVLDLTYPVTSMFTGSAFNRSIHRVFQDKQIEDLWLPYFNVTTDITASAMRVHKDGSLWRYVRASMTLSGYLPPLCDPKDGHLLMDGGYINNLPADIARSMGAKTVIAIDVGSQDETDLSTYGDSLSGWWLLWKRLNPWADKVKVPDMAEIQSRLAYVSCVRQLEVVKSSSYCEYLRPPIDCFKTMDFGKFDQIYDVGYQYGKAVFGGWSRGNVIEKMLTDRRSTDLNESRRADVLAFPSSGFTDLAEIVSRIEPPTSYVSDGCADGEESDCLTEYEEDAGPDCSRDEGGSPEGASPSTASEMEEEKSILRQRRCLPQEPPGSATDA [PNPLA6],-0.0785,51.4,50.8,-0.179,-0.313,-1.07
MEAVLNELVSVEDLLKFEKKFQSEKAAGSVSKSTQFEYAWCLVRSKYNDDIRKGIVLLEELLPKGSKEEQRDYVFYLAVGNYRLKEYEKALKYVRGLLQTEPQNNQAKELERLIDKAMKKDGLVGMAIVGGMALGVAGLAGLIGLAVSKSKS [FIS1],0.251,54.2,53.8,0.15,-2.36,-0.553
MECPHLSSSVCIAPDSAKFPNGSPSSWCCSVCRSNKSPWVCLTCSSVHCGRYVNGHAKKHYEDAQVPLTNHKKSEKQDKVQHTVCMDCSSYSTYCYRCDDFVVNDTKLGLVQKVREHLQNLENSAFTADRHKKRKLLENSTLNSKLLKVNGSTTAICATGLRNLGNTCFMNAILQSLSNIEQFCCYFKELPAVELRNGKTAGRRTYHTRSQGDNNVSLVEEFRKTLCALWQGSQTAFSPESLFYVVWKIMPNFRGYQQQDAHEFMRYLLDHLHLELQGGFNGVSRSAILQENSTLSASNKCCINGASTVVTAIFGGILQNEVNCLICGTESRKFDPFLDLSLDIPSQFRSKRSKNQENGPVCSLRDCLRSFTDLEELDETELYMCHKCKKKQKSTKKFWIQKLPKVLCLHLKRFHWTAYLRNKVDTYVEFPLRGLDMKCYLLEPENSGPESCLYDLAAVVVHHGSGVGSGHYTAYATHEGRWFHFNDSTVTLTDEETVVKAKAYILFYVEHQAKAGSDKL [USP3],-0.13,49.4,49.4,-0.0307,0.817,1.54
